Tested on: peptide library, one residue held at a place counted from the S/T acceptor
Experiment: relative phosphorylation of the sub-library (ratio to the mean residue at this position); higher = residue favoured
Summary of the method: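 Relative sub-library phosphorylation is the ratio of each sub-library's signal to the mean residue at that position. The signal came from phosphorimaging of spots on streptavidin membranes, quantified by densitometry, after purified recombinant kinases reacted with biotinylated degenerate peptide sub-libraries in 384-well plates. Reactions held 50 μM peptide and 50 μM ATP spiked with γ-32P-ATP for 90 min under kinase-specific conditions.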

Sequence of PRKG2, construct: Full length, human (Q13237 whole entry, looked up): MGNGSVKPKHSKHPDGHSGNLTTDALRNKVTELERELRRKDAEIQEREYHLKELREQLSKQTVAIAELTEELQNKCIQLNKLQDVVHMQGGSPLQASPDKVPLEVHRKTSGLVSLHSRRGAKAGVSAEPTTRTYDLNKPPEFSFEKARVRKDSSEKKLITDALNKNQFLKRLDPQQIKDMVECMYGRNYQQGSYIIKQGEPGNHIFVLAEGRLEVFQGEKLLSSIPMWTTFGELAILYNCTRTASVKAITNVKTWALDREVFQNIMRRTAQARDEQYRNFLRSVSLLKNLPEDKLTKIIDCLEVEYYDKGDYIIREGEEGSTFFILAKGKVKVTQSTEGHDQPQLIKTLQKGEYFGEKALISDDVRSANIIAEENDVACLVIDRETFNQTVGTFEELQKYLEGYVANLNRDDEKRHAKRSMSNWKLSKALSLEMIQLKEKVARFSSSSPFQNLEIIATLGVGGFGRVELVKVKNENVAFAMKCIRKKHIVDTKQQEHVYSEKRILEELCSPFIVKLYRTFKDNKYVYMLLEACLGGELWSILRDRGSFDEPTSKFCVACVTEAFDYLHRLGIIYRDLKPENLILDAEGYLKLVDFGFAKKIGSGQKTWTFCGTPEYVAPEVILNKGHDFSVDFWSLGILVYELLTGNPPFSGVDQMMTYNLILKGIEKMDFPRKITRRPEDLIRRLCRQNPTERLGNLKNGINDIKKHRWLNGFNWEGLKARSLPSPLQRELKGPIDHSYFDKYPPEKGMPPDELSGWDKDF

PRKG2, construct: Full length, human (from UniProt Q13237)
relative phosphorylation
Settings | at +1 | at +2 | at +3 | at +4 | at -1 | at -2 | at -3 | at -4 | at -5
A fixed | 0.876 | 1.35 | 1.04 | 0.834 | 0.761 | 0.368 | 0.816 | 1.28 | 1.24
D fixed | 0.313 | 0.408 | 0.703 | 0.573 | 0.421 | 0.132 | 0.147 | 0.472 | 0.416
E fixed | 0.45 | 0.386 | 0.697 | 0.601 | 0.361 | 0.113 | 0.206 | 0.584 | 0.415
F fixed | 1.34 | 1.09 | 0.948 | 0.919 | 0.928 | 0.285 | 0.477 | 0.753 | 0.859
G fixed | 0.563 | 0.911 | 1.2 | 1.07 | 0.529 | 0.387 | 0.983 | 1.23 | 1.21
H fixed | 1.02 | 1.39 | 1.42 | 1.21 | 1.18 | 0.662 | 1.09 | 0.997 | 1.05
I fixed | 1.56 | 1.16 | 0.83 | 1.01 | 0.993 | 0.24 | 0.337 | 0.731 | 0.883
K fixed | 1.06 | 1.21 | 1.29 | 1.05 | 1.78 | 4.63 | 2.46 | 1.74 | 2.05
L fixed | 1.29 | 0.936 | 0.943 | 0.883 | 1.16 | 0.321 | 0.376 | 0.789 | 0.745
M fixed | 1.36 | 0.935 | 0.893 | 1.1 | 1.12 | 0.261 | 0.412 | 0.896 | 0.722
N fixed | 0.801 | 0.765 | 0.893 | 1.04 | 0.921 | 0.436 | 0.577 | 0.766 | 0.803
P fixed | 0.28 | 0.748 | 0.932 | 1.55 | 1.26 | 0.349 | 1.32 | 1.14 | 1.07
Q fixed | 1.11 | 0.962 | 0.924 | 1.04 | 0.897 | 0.465 | 0.832 | 0.968 | 0.836
R fixed | 1.41 | 1.21 | 1.49 | 1 | 1.76 | 7.58 | 5.47 | 2.24 | 2.01
V fixed | 1.9 | 1.44 | 0.927 | 0.937 | 1.07 | 0.234 | 0.399 | 0.928 | 0.905
W fixed | 0.766 | 1.01 | 0.832 | 1.29 | 0.66 | 0.283 | 0.514 | 0.762 | 0.884
Y fixed | 0.901 | 1.09 | 1.04 | 0.892 | 1.2 | 0.265 | 0.575 | 0.716 | 0.902
pThr fixed | 0.816 | 0.427 | 0.557 | 0.911 | 0.426 | 0.306 | 0.471 | 0.756 | 0.666
pTyr fixed | 0.634 | 0.543 | 0.976 | 0.751 | 0.502 | 0.277 | 0.437 | 0.502 | 0.698

RPS6KA5, construct: Full length, human (from UniProt O75582)
relative phosphorylation
Settings | at +1 | at +2 | at +3 | at +4 | at -1 | at -2 | at -3 | at -4 | at -5
A fixed | 0.772 | 0.9 | 0.834 | 0.825 | 0.783 | 0.787 | 0.718 | 0.981 | 1.04
D fixed | 0.723 | 2.19 | 1.3 | 1.63 | 0.877 | 0.316 | 0.294 | 0.639 | 0.65
E fixed | 0.84 | 1.43 | 1.27 | 1.62 | 0.544 | 0.306 | 0.314 | 0.757 | 0.597
F fixed | 1.44 | 0.986 | 1.12 | 0.863 | 0.767 | 0.4 | 0.352 | 0.778 | 0.91
G fixed | 0.633 | 0.826 | 0.988 | 1 | 0.855 | 0.675 | 0.499 | 1.31 | 1.18
H fixed | 1.04 | 1.59 | 1.35 | 1.23 | 1.16 | 1.06 | 1.18 | 1.18 | 1.03
I fixed | 1.48 | 0.676 | 0.738 | 0.713 | 0.435 | 0.272 | 0.286 | 0.694 | 0.779
K fixed | 0.616 | 0.436 | 0.674 | 0.588 | 1.57 | 1.8 | 1.18 | 1.34 | 1.2
L fixed | 1.32 | 0.95 | 1.09 | 0.777 | 1.07 | 0.444 | 0.293 | 0.807 | 1.03
M fixed | 1.49 | 0.781 | 0.981 | 0.788 | 1.04 | 0.445 | 0.39 | 1.07 | 0.962
N fixed | 0.976 | 1.27 | 0.92 | 1.2 | 1.42 | 0.693 | 0.51 | 0.909 | 0.81
P fixed | 0.292 | 0.581 | 0.98 | 1.5 | 1.63 | 0.367 | 0.588 | 1.1 | 0.923
Q fixed | 1.19 | 0.734 | 0.989 | 1.12 | 1.15 | 0.843 | 0.666 | 0.915 | 0.774
R fixed | 0.539 | 0.52 | 0.574 | 0.551 | 1.5 | 7.44 | 8.25 | 2.04 | 2.26
V fixed | 1.21 | 0.81 | 0.714 | 0.721 | 0.466 | 0.318 | 0.282 | 0.663 | 0.775
W fixed | 1.21 | 1.03 | 1.33 | 0.959 | 0.743 | 0.425 | 0.709 | 0.86 | 1.2
Y fixed | 1.25 | 1.28 | 1.16 | 0.912 | 1 | 0.4 | 0.486 | 0.952 | 0.871
pThr fixed | 1.64 | 1.88 | 1.62 | 2.88 | 0.451 | 0.325 | 0.406 | 0.697 | 0.68
pTyr fixed | 1.68 | 1.25 | 1.53 | 1.57 | 0.898 | 0.392 | 0.539 | 0.698 | 0.747

SRPK3, construct: Full length, human (from UniProt Q9UPE1)
relative phosphorylation
Settings | at +1 | at +2 | at +3 | at +4 | at -1 | at -2 | at -3 | at -4 | at -5
A fixed | 0.905 | 1.14 | 0.591 | 0.865 | 1.08 | 1.46 | 0.594 | 0.904 | 0.946
D fixed | 0.388 | 1.38 | 0.427 | 0.767 | 0.598 | 3.18 | 0.543 | 0.699 | 0.69
E fixed | 0.501 | 1.15 | 0.377 | 0.67 | 0.731 | 1.53 | 0.451 | 0.818 | 0.718
F fixed | 0.56 | 0.736 | 0.505 | 0.848 | 0.727 | 0.782 | 0.389 | 0.825 | 1.1
G fixed | 0.767 | 0.962 | 0.719 | 1.03 | 1.05 | 0.997 | 0.429 | 0.929 | 1.05
H fixed | 0.649 | 1.54 | 0.577 | 0.999 | 1.3 | 0.804 | 0.444 | 0.944 | 1.09
I fixed | 0.877 | 0.777 | 0.413 | 0.739 | 0.696 | 0.471 | 0.351 | 0.865 | 0.92
K fixed | 0.963 | 1.08 | 1.06 | 1.33 | 1.34 | 0.908 | 0.724 | 1.36 | 1.33
L fixed | 1.09 | 0.601 | 0.41 | 0.846 | 0.924 | 0.551 | 0.346 | 0.791 | 0.785
M fixed | 1.01 | 0.796 | 0.467 | 0.899 | 1.02 | 0.666 | 0.403 | 0.859 | 0.906
N fixed | 0.674 | 1.31 | 0.592 | 1.04 | 0.833 | 0.938 | 0.417 | 0.83 | 0.861
P fixed | 3.97 | 0.922 | 1.39 | 1.02 | 1.58 | 0.762 | 0.387 | 0.99 | 0.74
Q fixed | 0.926 | 0.905 | 0.635 | 1.07 | 1.07 | 0.729 | 0.568 | 0.952 | 0.777
R fixed | 1.48 | 1.35 | 7.34 | 2.07 | 1.76 | 1.31 | 9.8 | 2.63 | 2.11
V fixed | 1.13 | 0.909 | 0.456 | 0.745 | 0.898 | 0.547 | 0.34 | 0.852 | 0.897
W fixed | 0.574 | 0.701 | 0.541 | 1.18 | 0.579 | 0.638 | 0.39 | 0.881 | 0.977
Y fixed | 0.537 | 0.734 | 0.496 | 0.876 | 0.818 | 0.723 | 0.429 | 0.867 | 1.1
pThr fixed | 0.601 | 1.02 | 0.572 | 0.874 | 0.69 | 1.01 | 0.644 | 1.13 | 0.863
pTyr fixed | 0.746 | 0.876 | 0.702 | 0.924 | 1.38 | 1.79 | 1.29 | 2.21 | 1.15
